Results from patent publication US20190389910A1 (ORUM THERAPEUTICS, published 2019).

Key:
[1] = biological target: heparan sulfate proteoglycan (HSPG) expressed on HeLa cells; experiment: cell-based or functional assay
[2] = biological target: T1, EpCAM (epithelial cell adhesion molecule) expressed on the cell surface of human tumor cells (human, UniProt P16422 24-314); experiment: flow cytometry on HCT116 and SW480 cells; 100 nM antibody with 300 IU/mL heparin, Alexa488 anti-human Fc
T1 construct: whole, on cells; also called cell surface EpCAM; EpCAM receptor
T1 sequence (looked up): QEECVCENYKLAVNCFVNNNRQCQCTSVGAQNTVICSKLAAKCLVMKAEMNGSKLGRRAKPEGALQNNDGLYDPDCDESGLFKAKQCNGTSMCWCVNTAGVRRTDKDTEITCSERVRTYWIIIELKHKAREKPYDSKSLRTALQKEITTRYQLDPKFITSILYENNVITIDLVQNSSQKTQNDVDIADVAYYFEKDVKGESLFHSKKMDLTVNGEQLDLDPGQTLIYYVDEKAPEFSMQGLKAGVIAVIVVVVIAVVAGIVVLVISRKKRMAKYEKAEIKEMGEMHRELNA
Experimental: Cell surface-binding levels of the indicated CTs, coincubated at 100 nM with 300 IU/mL heparin for 1 h at 4° C. with the indicated cells before analysis (lower panels). An isotype control is used as a negative control.
Then, each antibody was reacted with antibodies specific for human Fc to which Alexa488 (green fluorescence) was linked, at 4° C. for 30 min. After washing with PBS, the cells were analyzed by flow cytometry.

[3] = biological target: human recombinant integrin αvβ5 (αv extracellular domain-acidic leucine zipper-His×6 with β5 extracellular domain-basic leucine zipper) (human) (UniProt P06756); experiment: BLI (Octet), antibody on AHC biosensor, integrin αvβ5 as analyte
human recombinant integrin αvβ5 (αv extracellular domain-acidic leucine zipper-His×6 with β5 extracellular domain-basic leucine zipper) (human), sequence (P06756 other isoform, or with tags, fused parts or gaps, chain 1 of 2): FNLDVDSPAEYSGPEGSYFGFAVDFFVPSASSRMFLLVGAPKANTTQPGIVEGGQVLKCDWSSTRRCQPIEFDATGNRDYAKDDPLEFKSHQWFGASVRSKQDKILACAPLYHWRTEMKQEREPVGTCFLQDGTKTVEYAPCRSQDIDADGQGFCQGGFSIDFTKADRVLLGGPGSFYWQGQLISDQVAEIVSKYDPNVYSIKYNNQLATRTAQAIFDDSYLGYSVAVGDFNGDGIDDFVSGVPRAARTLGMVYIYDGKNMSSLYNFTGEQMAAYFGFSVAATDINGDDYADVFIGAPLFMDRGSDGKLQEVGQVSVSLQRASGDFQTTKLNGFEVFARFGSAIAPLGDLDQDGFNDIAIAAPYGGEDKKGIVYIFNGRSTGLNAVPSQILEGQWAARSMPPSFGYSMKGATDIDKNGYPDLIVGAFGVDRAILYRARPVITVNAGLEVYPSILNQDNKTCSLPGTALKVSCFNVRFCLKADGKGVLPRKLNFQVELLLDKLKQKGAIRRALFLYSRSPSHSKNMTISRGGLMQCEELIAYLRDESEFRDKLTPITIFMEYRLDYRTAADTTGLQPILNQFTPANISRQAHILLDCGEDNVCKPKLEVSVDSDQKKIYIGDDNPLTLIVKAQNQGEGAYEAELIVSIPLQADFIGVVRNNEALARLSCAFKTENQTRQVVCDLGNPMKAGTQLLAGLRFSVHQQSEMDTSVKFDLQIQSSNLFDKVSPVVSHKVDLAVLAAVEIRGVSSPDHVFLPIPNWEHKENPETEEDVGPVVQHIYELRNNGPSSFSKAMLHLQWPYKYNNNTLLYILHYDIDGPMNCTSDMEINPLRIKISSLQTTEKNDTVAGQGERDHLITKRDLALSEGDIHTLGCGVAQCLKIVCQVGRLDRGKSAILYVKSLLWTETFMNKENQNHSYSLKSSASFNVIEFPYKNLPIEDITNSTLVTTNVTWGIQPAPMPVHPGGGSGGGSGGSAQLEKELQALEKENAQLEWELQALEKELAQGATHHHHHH
human recombinant integrin αvβ5 (αv extracellular domain-acidic leucine zipper-His×6 with β5 extracellular domain-basic leucine zipper) (human), sequence (chain, as listed by the source, chain 2 of 2): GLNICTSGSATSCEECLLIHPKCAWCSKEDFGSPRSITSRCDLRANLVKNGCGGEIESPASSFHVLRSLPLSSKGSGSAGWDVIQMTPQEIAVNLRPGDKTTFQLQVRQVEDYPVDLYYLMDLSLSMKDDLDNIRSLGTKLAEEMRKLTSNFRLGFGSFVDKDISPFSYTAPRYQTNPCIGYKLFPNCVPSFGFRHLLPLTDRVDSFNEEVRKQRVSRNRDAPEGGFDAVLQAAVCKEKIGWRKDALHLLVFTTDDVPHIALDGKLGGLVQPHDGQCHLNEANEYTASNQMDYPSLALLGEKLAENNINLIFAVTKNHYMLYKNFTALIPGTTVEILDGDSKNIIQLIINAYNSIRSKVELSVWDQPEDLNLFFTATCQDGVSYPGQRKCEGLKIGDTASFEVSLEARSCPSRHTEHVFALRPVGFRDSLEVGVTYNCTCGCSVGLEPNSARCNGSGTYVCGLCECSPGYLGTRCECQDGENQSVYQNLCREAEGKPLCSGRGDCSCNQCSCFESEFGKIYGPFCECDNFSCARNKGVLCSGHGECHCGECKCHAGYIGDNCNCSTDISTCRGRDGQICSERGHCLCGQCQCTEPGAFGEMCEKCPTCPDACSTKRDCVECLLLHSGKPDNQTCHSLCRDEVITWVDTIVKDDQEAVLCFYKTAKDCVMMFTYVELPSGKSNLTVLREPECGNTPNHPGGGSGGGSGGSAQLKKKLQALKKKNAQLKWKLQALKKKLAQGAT

[4] = biological target: human recombinant integrin αvβ5 (αv extracellular domain-acidic leucine zipper-His×6 with β5 extracellular domain-basic leucine zipper) (human) (UniProt P06756); experiment: BLI (Octet), antibody captured on anti-human IgG Fc (AHC) biosensor, integrin αvβ5 3.1-100 nM as analyte, divalent cations
[5] = biological target: human recombinant integrin αvβ6 (αv extracellular domain-acidic leucine zipper-His×6 with β6 extracellular domain-basic leucine zipper) (human) (UniProt P06756); experiment: BLI (Octet), antibody captured on anti-human IgG Fc (AHC) biosensor, integrin αvβ6 3.1-100 nM as analyte, divalent cations
human recombinant integrin αvβ6 (αv extracellular domain-acidic leucine zipper-His×6 with β6 extracellular domain-basic leucine zipper) (human), sequence (P06756 other isoform, or with tags, fused parts or gaps, chain 1 of 2): as the sequence (P06756 other isoform, or with tags, fused parts or gaps, chain 1 of 2) above
human recombinant integrin αvβ6 (αv extracellular domain-acidic leucine zipper-His×6 with β6 extracellular domain-basic leucine zipper) (human), sequence (chain, as listed by the source, chain 2 of 2): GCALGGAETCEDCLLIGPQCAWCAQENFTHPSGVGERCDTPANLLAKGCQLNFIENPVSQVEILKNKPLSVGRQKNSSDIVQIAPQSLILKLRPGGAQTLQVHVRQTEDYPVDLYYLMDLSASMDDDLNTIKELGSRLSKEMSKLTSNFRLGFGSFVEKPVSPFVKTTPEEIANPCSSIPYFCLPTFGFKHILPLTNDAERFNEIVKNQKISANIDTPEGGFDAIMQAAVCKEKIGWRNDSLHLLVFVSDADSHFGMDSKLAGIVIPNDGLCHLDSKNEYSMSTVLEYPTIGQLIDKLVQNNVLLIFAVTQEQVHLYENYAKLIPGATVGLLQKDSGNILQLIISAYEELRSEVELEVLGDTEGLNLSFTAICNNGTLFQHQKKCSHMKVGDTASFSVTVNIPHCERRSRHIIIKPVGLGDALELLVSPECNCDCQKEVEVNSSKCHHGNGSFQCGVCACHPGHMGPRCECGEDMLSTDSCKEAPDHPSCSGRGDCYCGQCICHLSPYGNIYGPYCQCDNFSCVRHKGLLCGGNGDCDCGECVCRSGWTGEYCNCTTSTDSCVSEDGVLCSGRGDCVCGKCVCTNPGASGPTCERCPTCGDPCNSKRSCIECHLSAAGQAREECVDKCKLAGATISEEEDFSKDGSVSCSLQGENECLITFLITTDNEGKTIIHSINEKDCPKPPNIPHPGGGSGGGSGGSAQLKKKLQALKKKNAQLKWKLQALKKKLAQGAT

[6] = biological target: human recombinant integrin αvβ6 (αv extracellular domain-acidic leucine zipper-His×6 with β6 extracellular domain-basic leucine zipper) (human) (UniProt P06756); experiment: BLI (Octet), antibody on AHC biosensor, integrin αvβ6 as analyte

B1: CT03b (antibody, V domains shown)
VH: EVQLVESGGGLVQPGGSLRLSCAASGYTFTSYVMHWVRQAPGKGLEWVSAINPYNDGNYYADSVKGRFTISRDNSRKTLYLQMNSLRAEDTAVYYCARGAYKRGYAMDYWGQGTTVTVSS
VL: DLVMTQSPSSLSASVGDRVTITCKSSQSLLNSRDGNTYLAWYQQKPGKAPKLLIYWLSYRASGVPSRFSGSGSGTDFTLTISSLQPEDFATYFCQQYWYWMYTFGQGTKVEIKR
fluorescence intensity of antibody located in the cytoplasm (confocal microscopy, HeLa cells, 1 µM, 6 h) [1]: 12.4%

B2: CT05 (antibody, V domains shown)
VH: B1 VH
VL: DIQMTQSPSSLSASVGDRVTITCKSSQSLLNSRDGKNYLAWYQQKPGKAPKLLIYDASNLETGVPSRFSGSGSGTDFTFTISSLQPEDIATYFCQQYWYWMYTFGGGTKVEIKR
notes: Intact IgG without a cyclic peptide; also called CT05 VL variant
fluorescence intensity of internalized antibody relative to TMab4-WYW (confocal microscopy, HeLa cells, 1 µM, 6 h) [1]: 17.3%
binding result [2]: no binding (tested: 100 nM)

B3: 5#1-Ras03 (antibody, part only; not given: RT22 heavy chain, constant regions, V domains shown, not shown: another chain or arm of the molecule; a dimerising Fc or GST; large carriers; small tags and cut ends)
VL: LPSGACVVRGDTFQCVSVGMGSSSNDIQMTQSPSSLSASVGDRVTITCKSSQSLLNSRDGKNYLAWYQQKPGKAPKLLIYWASTRESGVPSRFSGSGSGTDFTLTISSLQPEDFATYFCQQYWYWMYTFGQGTKVEIK
modifications: chain 1: disulfide bond Cys6-Cys15 closes the 5#1 cyclic peptide
fold higher affinity than in4-Ras03 [3]: 2 fold
Kd [4]: 1.13 nM
koff [4]: 6.39e-05 s⁻¹
kon [4]: 56700 M⁻¹ s⁻¹

B4: 6#6-Ras03 (antibody, part only; not given: RT22 heavy chain, light constant, V domains shown, not shown: another chain or arm of the molecule; a dimerising Fc or GST)
VL: LGPLPCQTRGDLFSLCHYMGSSSNDIQMTQSPSSLSASVGDRVTITCKSSQSLLNSRDGKNYLAWYQQKPGKAPKLLIYWASTRESGVPSRFSGSGSGTDFTLTISSLQPEDFATYFCQQYWYWMYTFGQGTKVEIK
modifications: chain 1: disulfide bond Cys6-Cys16 closes the cyclic peptide
Kd [5]: 0.843 nM
koff [5]: 0.000182 s⁻¹
kon [5]: 216000 M⁻¹ s⁻¹
fold higher binding affinity than in4-Ras03 [6]: 12 fold
